The target in experiment [1] is GH10 (1) from PUL15 of Prevotella copri DSM18205 (extracellular endo-1,4-β-xylanase) (Prevotella copri DSM 18205). Kind of experiment: SEC; HiPrep 16/60 Sephacryl S-300 HR column, 0.5 mL/min, sodium phosphate 50 mM, NaCl 150 mM, pH 7.0; calibrated with molecular weight standards 20-700 kDa; native mass compared with the theoretical mass. (In general: In gel filtration, larger molecules generally elute earlier.)

The target in experiment [2] is GH43_1 from PUL15 of Prevotella copri DSM18205 (intracellular β-xylosidase / exo-β-xylanase) (Prevotella copri DSM 18205). Described as above.

Usually stoichiometry N stands for a count of units in the complex or per binding partner. In experiment [1], “GH10 (1) from PUL15 of Prevotella copri DSM18205 (extracellular endo-1,4-β-xylanase) (enzyme)” registered a stoichiometry N of 2. In experiment [2], “GH43_1 from PUL15 of Prevotella copri DSM18205 (intracellular β-xylosidase / exo-β-xylanase) (enzyme)” came in with a stoichiometry N of 2.

The values are drawn from PMC8631079.
